Our source for the Kd values is article PMC7712654 (2020).

What is called Kd is the equilibrium constant for the complex coming apart.

B2: α-CT coiled-coil domain fused with HIS tag (α-CT-His), fluorescently labeled (domain or fragment)
chain: INMKKREAVFSDSRKLQGEVDKLKEQILKAKETSTEAEPSSEVLNEMIEKLKSEIDDEYTEAAIAVGLEERLTAMREEFSKASSEEHLMHPVLIEKIEKLKEEFNTRLTDAPNYESLKSKLNMLRDFSRAKAASEATSLKKEINKRFQEAVDRPEIREKVEAIKAEVASSGASSFDELPDALKEKVLKTKGEVEAEMAGVLKSMGLELDAVKQNQKDTAEQIYAANENLQEKLEKLNQEITSKIEEVVRTPEIKSMVELLKVETAKASKTPGVTEAYQKIEALEQQIKQKIAEALNTSGLQEKQDELEKELAAARELAAEESDGSVKEDDDDDEDSSESGKSEMVNPSFA
modifications: fluorescently labeled using His-tag labeling kit (NanoTemper, MO-L008)

Assay [1] addresses B2. The experiment in a line: MST.
Assay [2] has as its target coiled-coil domain of CTI3 fused with HIS tag (Arabidopsis thaliana). As to the kind of experiment: MST.

B1: coiled-coil domain of CTI1 fused with HIS tag (domain or fragment)
chain: PQISKAIAGADRKDLMRKLPKFIYDEEKALEKTRKVLAEKIAQLNSAIDDVSSQLKSEDTPNGAALSTDEIEATA
On to B1, for which the Kd in assay [1] was determined as 14.8 nM.

Consider B2, for which, in assay [2], the Kd was 114 nM.
